According to patent publication US20250352667A1:
Values belong to the binder of their own block, whether it stands above or below them.

Assays:
[1] = molecular target: KEAP1 (wild-type full-length), His-tagged (human) (UniProt Q14145); assay: AlphaScreen; 9.6 nM FLAG-NRF2, 150 nM His-KEAP1; wild type set to 100%
[2] = molecular target: KEAP1 (wild-type full-length), His-tagged (human) (UniProt Q14145); assay: AlphaScreen; 2.4 nM FLAG-NRF2, 150 nM His-KEAP1; Rep 2; control for I28V
[3] = molecular target: KEAP1 (wild-type full-length), His-tagged (human) (UniProt Q14145); assay: AlphaScreen; 2.4 nM FLAG-NRF2, 150 nM His-KEAP1; Rep 2; control for I86V
[4] = molecular target: KEAP1 (wild-type full-length), His-tagged (human) (UniProt Q14145); assay: AlphaScreen; 2.4 nM FLAG-NRF2, 150 nM His-KEAP1; Rep 3; control for I86V
[5] = molecular target: KEAP1 (wild-type full-length), His-tagged (human) (UniProt Q14145); assay: AlphaScreen; 9.6 nM FLAG-NRF2, 150 nM His-KEAP1; Rep 3; control for I86V
[6] = molecular target: KEAP1 (wild-type full-length), His-tagged (human) (UniProt Q14145); assay: AlphaScreen; 19.2 nM FLAG-NRF2, 150 nM His-KEAP1; Rep 3; control for I86V
[7] = molecular target: KEAP1 (wild-type full-length), His-tagged (human) (UniProt Q14145); assay: AlphaScreen; 38.4 nM FLAG-NRF2, 150 nM His-KEAP1; Rep 2; control for I86V
[8] = molecular target: KEAP1 (wild-type full-length), His-tagged (human) (UniProt Q14145); assay: AlphaScreen; 153.6 nM FLAG-NRF2, 150 nM His-KEAP1; Rep 1; control for I28V
[9] = molecular target: KEAP1 (wild-type full-length), His-tagged (human) (UniProt Q14145); assay: AlphaScreen; 614.4 nM FLAG-NRF2, 150 nM His-KEAP1; Rep 3; control for I86V
[10] = molecular target: KEAP1 (wild-type full-length), His-tagged (human) (UniProt Q14145); assay: AlphaScreen; 76.8 nM FLAG-NRF2, 150 nM His-KEAP1; signal against NRF2 only; control for I28V
[11] = molecular target: KEAP1 (wild-type full-length), His-tagged (human) (UniProt Q14145); assay: AlphaScreen; FLAG-NRF2 wt isoform 1 19.2 nM, His-KEAP1 150 nM; Rep 1; positive control for Q75R
[12] = molecular target: KEAP1 (wild-type full-length), His-tagged (human) (UniProt Q14145); assay: AlphaScreen; FLAG-NRF2 wt isoform 1 614.4 nM, His-KEAP1 150 nM; Rep 2; positive control for Q75R
[13] = molecular target: KEAP1 (wild-type full-length), His-tagged (human) (UniProt Q14145); assay: AlphaScreen; FLAG-NRF2 wt isoform 1 9.6 nM, His-KEAP1 150 nM; Repeat 1; positive control for Q75R
[14] = molecular target: KEAP1 (wild-type full-length), His-tagged (human) (UniProt Q14145); assay: AlphaScreen; NRF2 wt isoform 1 307.2 nM, KEAP1 150 nM; signal against NRF2-only control; control for Q75R
[15] = molecular target: KEAP1 (wild-type full-length), His-tagged (human) (UniProt Q14145); assay: AlphaScreen; FLAG-NRF2 I86V 19.2 nM, His-KEAP1 150 nM; Rep 2
[16] = molecular target: KEAP1 (wild-type full-length), His-tagged (human) (UniProt Q14145); assay: AlphaScreen; FLAG-NRF2 I86V 76.8 nM, His-KEAP1 150 nM; Rep 3
[17] = molecular target: KEAP1 (wild-type full-length), His-tagged (human) (UniProt Q14145); assay: AlphaScreen; FLAG-NRF2 I86V 153.6 nM, His-KEAP1 150 nM; Rep 1
[18] = molecular target: KEAP1 (wild-type full-length), His-tagged (human) (UniProt Q14145); assay: AlphaScreen; NRF2 I86V 307.2 nM, KEAP1 150 nM; signal against NRF2-only control
[19] = molecular target: KEAP1 (wild-type full-length), His-tagged (human) (UniProt Q14145); assay: AlphaScreen; mean over 9.6, 19.2 and 38.4 nM NRF2 I86V, KEAP1 150 nM; relative to wild-type NRF2 isoform 1
[20] = molecular target: KEAP1 (wild-type full-length), His-tagged (human) (UniProt Q14145); assay: AlphaScreen; FLAG-NRF2 Q75R 19.2 nM, His-KEAP1 150 nM; Rep 1
[21] = molecular target: KEAP1 (wild-type full-length), His-tagged (human) (UniProt Q14145); assay: AlphaScreen; FLAG-NRF2 Q75R 1228.8 nM, His-KEAP1 150 nM; Rep 1
[22] = molecular target: KEAP1 (wild-type full-length), His-tagged (human) (UniProt Q14145); assay: AlphaScreen; NRF2 Q75R 76.8 nM, KEAP1 150 nM; signal against NRF2-only control
[23] = molecular target: KEAP1 (wild-type full-length), His-tagged (human) (UniProt Q14145); assay: AlphaScreen; 76.8 nM FLAG-NRF2, 150 nM His-KEAP1; Rep 2
[24] = molecular target: KEAP1 (wild-type full-length), His-tagged (human) (UniProt Q14145); assay: AlphaScreen; 153.6 nM FLAG-NRF2, 150 nM His-KEAP1; Rep 2
[25] = molecular target: KEAP1 (wild-type full-length), His-tagged (human) (UniProt Q14145); assay: AlphaScreen; 307.2 nM FLAG-NRF2, 150 nM His-KEAP1; Rep 1
[26] = molecular target: KEAP1 (wild-type full-length), His-tagged (human) (UniProt Q14145); assay: AlphaScreen; 38.4 nM FLAG-NRF2, 150 nM His-KEAP1 (same value as in Table 27)
[27] = molecular target: KEAP1 (wild-type full-length), His-tagged (human) (UniProt Q14145); assay: AlphaScreen; 9.6 nM FLAG-NRF2, 150 nM His-KEAP1; against wild-type NRF2 isoform 1 = 100%

KEAP1 (wild-type full-length), His-tagged (human), sequence (Q14145 2-624 limits assumed): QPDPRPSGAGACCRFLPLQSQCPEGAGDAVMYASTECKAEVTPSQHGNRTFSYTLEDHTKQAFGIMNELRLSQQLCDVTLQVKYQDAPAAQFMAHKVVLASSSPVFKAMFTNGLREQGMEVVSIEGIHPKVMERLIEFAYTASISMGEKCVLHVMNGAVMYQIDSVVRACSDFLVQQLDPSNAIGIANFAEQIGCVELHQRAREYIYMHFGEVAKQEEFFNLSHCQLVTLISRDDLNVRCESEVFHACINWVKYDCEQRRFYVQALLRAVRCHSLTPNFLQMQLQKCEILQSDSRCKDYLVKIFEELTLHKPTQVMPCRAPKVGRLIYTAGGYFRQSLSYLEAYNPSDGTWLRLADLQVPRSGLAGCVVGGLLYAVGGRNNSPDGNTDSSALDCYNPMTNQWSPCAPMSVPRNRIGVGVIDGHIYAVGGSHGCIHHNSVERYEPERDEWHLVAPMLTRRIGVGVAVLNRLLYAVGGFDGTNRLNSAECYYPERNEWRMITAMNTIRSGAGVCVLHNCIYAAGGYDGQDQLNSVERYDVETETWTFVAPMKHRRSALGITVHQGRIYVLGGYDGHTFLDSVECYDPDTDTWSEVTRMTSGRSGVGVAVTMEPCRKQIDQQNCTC

- A-counts (NRF2 plus KEAP1) [15]: 3160 A-counts
- A-counts (NRF2 plus KEAP1) [16]: 2560 A-counts
- A-counts (NRF2 plus KEAP1) [17]: 2380 A-counts
- S/N [18]: 1.3
- Average Binding [19]: 96.8%
- Avg. Reduction in Binding [19]: 3.2%
B2: NRF2 isoform 1 (I86V full-length), FLAG-tagged (protein)
chain: MMDLELPPPGLPSQQDMDLIDILWRQDIDLGVSREVFDFSQRRKEYELEKQKKLEKERQEQLQKEQEKAFFAQLQLDEETGEFLPVQPAQHIQSETSGSANYSQVAHIPKSDALYFDDCMQLLAQTFPFVDDNEVSSATFQSLVPDIPGHIESPVFIATNQAQSPETSVAQVAPVDLDGMQQDIEQVWEELLSIPELQCLNIENDKLVETTMVPSPEAKLTEVDNYHFYSSIPSMEKEVGNCSPHFLNAFEDSFSSILSTEDPNQLTVNSLNSDATVNTDFGDEFYSAFIAEPSISNSMPSPATLSHSLSELLNGPIDVSDLSLCKAFNQNHPESTAEFNDSDSGISLNTSPSVASPEHSVESSSYGDTLLGLSDSEVEELDSAPGSVKQNGPKTPVHSSGDMVQPLSPSQGQSTHVHDAQCENTPEKELPVSPGHRKTPFTKDKHSSRLEAHLTRDELRAKALHIPFPVEKIINLPVVDFNEMMSKEQFNEAQLALIRDIRRRGKNKVAAQNCRKRKLENIVELEQDLDHLKDEKEKLLKEKGENDKSLHLLKKQLSTLYLEVFSMLRDEDGKPYSPSEYSLQQTRDGNVFLVPKSKKPDVKKN

- A-counts [23]: 1500 A-counts
- A-counts [24]: 1440 A-counts
- A-counts [25]: 1310 A-counts
- S/N [26]: 2.7
- Binding Percentage (%) [27]: 77.6%
B4: NRF2 isoform 1 (I28V full-length), FLAG-tagged (protein)
chain: MMDLELPPPGLPSQQDMDLIDILWRQDVDLGVSREVFDFSQRRKEYELEKQKKLEKERQEQLQKEQEKAFFAQLQLDEETGEFLPIQPAQHIQSETSGSANYSQVAHIPKSDALYFDDCMQLLAQTFPFVDDNEVSSATFQSLVPDIPGHIESPVFIATNQAQSPETSVAQVAPVDLDGMQQDIEQVWEELLSIPELQCLNIENDKLVETTMVPSPEAKLTEVDNYHFYSSIPSMEKEVGNCSPHFLNAFEDSFSSILSTEDPNQLTVNSLNSDATVNTDFGDEFYSAFIAEPSISNSMPSPATLSHSLSELLNGPIDVSDLSLCKAFNQNHPESTAEFNDSDSGISLNTSPSVASPEHSVESSSYGDTLLGLSDSEVEELDSAPGSVKQNGPKTPVHSSGDMVQPLSPSQGQSTHVHDAQCENTPEKELPVSPGHRKTPFTKDKHSSRLEAHLTRDELRAKALHIPFPVEKIINLPVVDFNEMMSKEQFNEAQLALIRDIRRRGKNKVAAQNCRKRKLENIVELEQDLDHLKDEKEKLLKEKGENDKSLHLLKKQLSTLYLEVFSMLRDEDGKPYSPSEYSLQQTRDGNVFLVPKSKKPDVKKN

The remaining lines, values behind:

B1: NRF2 isoform 1 (wild-type full-length), FLAG-tagged (protein)
chain: MMDLELPPPGLPSQQDMDLIDILWRQDIDLGVSREVFDFSQRRKEYELEKQKKLEKERQEQLQKEQEKAFFAQLQLDEETGEFLPIQPAQHIQSETSGSANYSQVAHIPKSDALYFDDCMQLLAQTFPFVDDNEVSSATFQSLVPDIPGHIESPVFIATNQAQSPETSVAQVAPVDLDGMQQDIEQVWEELLSIPELQCLNIENDKLVETTMVPSPEAKLTEVDNYHFYSSIPSMEKEVGNCSPHFLNAFEDSFSSILSTEDPNQLTVNSLNSDATVNTDFGDEFYSAFIAEPSISNSMPSPATLSHSLSELLNGPIDVSDLSLCKAFNQNHPESTAEFNDSDSGISLNTSPSVASPEHSVESSSYGDTLLGLSDSEVEELDSAPGSVKQNGPKTPVHSSGDMVQPLSPSQGQSTHVHDAQCENTPEKELPVSPGHRKTPFTKDKHSSRLEAHLTRDELRAKALHIPFPVEKIINLPVVDFNEMMSKEQFNEAQLALIRDIRRRGKNKVAAQNCRKRKLENIVELEQDLDHLKDEKEKLLKEKGENDKSLHLLKKQLSTLYLEVFSMLRDEDGKPYSPSEYSLQQTRDGNVFLVPKSKKPDVKKN
- Binding Percentage (%) [1]: 100%
- A-counts [2]: 628 A-counts
- A-counts [3]: 959 A-counts
- A-counts [4]: 1100 A-counts
- A-counts [5]: 2410 A-counts
- A-counts [6]: 3040 A-counts
- A-counts [7]: 2850 A-counts
- A-counts [8]: 1930 A-counts
- A-counts [9]: 2720 A-counts
- S/N [10]: 2.7
- A-counts (NRF2 plus KEAP1) [11]: 1360 A-counts
- A-counts (NRF2 plus KEAP1) [12]: 1710 A-counts
- A-counts (NRF2 plus KEAP1) [13]: 1024 A-counts
- S/N [14]: 1.4

B3: NRF2 isoform 1 (Q75R full-length), FLAG-tagged (protein)
chain: MMDLELPPPGLPSQQDMDLIDILWRQDIDLGVSREVFDFSQRRKEYELEKQKKLEKERQEQLQKEQEKAFFAQLRLDEETGEFLPIQPAQHIQSETSGSANYSQVAHIPKSDALYFDDCMQLLAQTFPFVDDNEVSSATFQSLVPDIPGHIESPVFIATNQAQSPETSVAQVAPVDLDGMQQDIEQVWEELLSIPELQCLNIENDKLVETTMVPSPEAKLTEVDNYHFYSSIPSMEKEVGNCSPHFLNAFEDSFSSILSTEDPNQLTVNSLNSDATVNTDFGDEFYSAFIAEPSISNSMPSPATLSHSLSELLNGPIDVSDLSLCKAFNQNHPESTAEFNDSDSGISLNTSPSVASPEHSVESSSYGDTLLGLSDSEVEELDSAPGSVKQNGPKTPVHSSGDMVQPLSPSQGQSTHVHDAQCENTPEKELPVSPGHRKTPFTKDKHSSRLEAHLTRDELRAKALHIPFPVEKIINLPVVDFNEMMSKEQFNEAQLALIRDIRRRGKNKVAAQNCRKRKLENIVELEQDLDHLKDEKEKLLKEKGENDKSLHLLKKQLSTLYLEVFSMLRDEDGKPYSPSEYSLQQTRDGNVFLVPKSKKPDVKKN
- A-counts (NRF2 plus KEAP1) [20]: 1300 A-counts
- A-counts (NRF2 plus KEAP1) [21]: 705 A-counts
- S/N [22]: 1.8
